# In publication PMC9779004, “Structural, Thermodynamic and Enzymatic Characterization of N,N-Diacetylchitobiose Deacetylase from Pyrococcus chitonophagus” (International Journal of Molecular Sciences, 2022):
# How the values were obtained:
# [1] = biological target: N,N-diacetylchitobiose deacetylase from Pyrococcus chitonophagus (Pyrococcus chitonophagus DSM 10152); test: SEC-SAXS; stock solution 4.7 mg/mL, Superdex 200 Increase 5/150 GL, injected at 4 °C, 0.35 mL/min; main peak fitted with the crystallographic hexamer, chi^2 = 1.2
# [2] = biological target: N,N-diacetylchitobiose deacetylase from Pyrococcus chitonophagus (Pyrococcus chitonophagus DSM 10152); test: SAXS; batch mode, dilution series 0.2-3.48 mg/mL in Buffer A (20 mM TRIS pH 7.4, 200 mM NaCl), room temperature; curves fitted with the crystallographic hexamer and a 'dodecameric' model (CRYSOL, OLIGOMER)
# [3] = biological target: N,N-diacetylchitobiose deacetylase from Pyrococcus chitonophagus (Pyrococcus chitonophagus DSM 10152); test: crystal structure; three crystal forms: P2(1) with (GlcNAc)2 (two hexamers in the asymmetric unit), P3(2)21 unliganded (half a hexamer, other half by the crystallographic two-fold axis), P2(1)2(1)2(1) (one hexamer); data at 100 K
# [4] = biological target: T1, Pch-Dac (N,N-diacetylchitobiose deacetylase) (Thermococcus chitonophagus, UniProt A0A160VQZ8); test: ITC total heat (Happ) and 1H NMR; assay type: biochemical; settings: ITC pH 6.5, 75 °C; NMR HEPES pH 7.5; non-reducing-end deacetylation
# T1 construct: gene CHITON_0574; full gene in pET151D-TOPO, N-terminal 6xHis-TEV tag cut, expressed in E. coli BL21-Magic
# T1 sequence (A0A160VQZ8 1-267): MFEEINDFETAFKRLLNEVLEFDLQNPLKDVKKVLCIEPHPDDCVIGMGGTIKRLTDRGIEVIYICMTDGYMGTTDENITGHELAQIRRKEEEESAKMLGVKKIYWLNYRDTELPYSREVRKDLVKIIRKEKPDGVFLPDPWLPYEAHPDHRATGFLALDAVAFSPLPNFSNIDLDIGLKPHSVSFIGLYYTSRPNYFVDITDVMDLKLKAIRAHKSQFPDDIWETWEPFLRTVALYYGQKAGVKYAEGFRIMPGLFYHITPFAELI
Compound,stoichiometry N [1],percent of the scattering accounted for by the hexameric model [2],stoichiometry N [2],stoichiometry N [3],ITC total heat (Happ) and 1H NMR [4]
"N,N-diacetylchitobiose deacetylase from Pyrococcus chitonophagus (enzyme)",6,84 to 87%,6,6,
"CC(=O)N[C@H]1[C@H](O[C@H]2[C@H](O)[C@@H](N)C(O)O[C@@H]2CO)O[C@H](CO)[C@@H](O)[C@@H]1O (stereo partly drawn) [GlcNAc-GlcN, 1,4-β-D-acetyl glucosaminyl-D-N-glucosamine]",,,,,Reaction was observed only in the case of GlcNAc-GlcN
